Blank lines part the entries; values can stand above or below the binder they belong to.
Experiments:
human C5 [1] = molecular target: T1, human C5 (human, UniProt P01031); assay: BLI
human C3 [2] = molecular target: T2, human C3 (human, UniProt P01024); assay: BLI
human C5 W917S = human C5 W917S (human, UniProt P01031); assay: BLI
human C5 [3] = molecular target: T1, human C5; assay: BLI; remark: listed apart in the source
cynomolgus C5 = molecular target: T3, cynomolgus C5 (cynomolgus); assay: BLI
T3 chain: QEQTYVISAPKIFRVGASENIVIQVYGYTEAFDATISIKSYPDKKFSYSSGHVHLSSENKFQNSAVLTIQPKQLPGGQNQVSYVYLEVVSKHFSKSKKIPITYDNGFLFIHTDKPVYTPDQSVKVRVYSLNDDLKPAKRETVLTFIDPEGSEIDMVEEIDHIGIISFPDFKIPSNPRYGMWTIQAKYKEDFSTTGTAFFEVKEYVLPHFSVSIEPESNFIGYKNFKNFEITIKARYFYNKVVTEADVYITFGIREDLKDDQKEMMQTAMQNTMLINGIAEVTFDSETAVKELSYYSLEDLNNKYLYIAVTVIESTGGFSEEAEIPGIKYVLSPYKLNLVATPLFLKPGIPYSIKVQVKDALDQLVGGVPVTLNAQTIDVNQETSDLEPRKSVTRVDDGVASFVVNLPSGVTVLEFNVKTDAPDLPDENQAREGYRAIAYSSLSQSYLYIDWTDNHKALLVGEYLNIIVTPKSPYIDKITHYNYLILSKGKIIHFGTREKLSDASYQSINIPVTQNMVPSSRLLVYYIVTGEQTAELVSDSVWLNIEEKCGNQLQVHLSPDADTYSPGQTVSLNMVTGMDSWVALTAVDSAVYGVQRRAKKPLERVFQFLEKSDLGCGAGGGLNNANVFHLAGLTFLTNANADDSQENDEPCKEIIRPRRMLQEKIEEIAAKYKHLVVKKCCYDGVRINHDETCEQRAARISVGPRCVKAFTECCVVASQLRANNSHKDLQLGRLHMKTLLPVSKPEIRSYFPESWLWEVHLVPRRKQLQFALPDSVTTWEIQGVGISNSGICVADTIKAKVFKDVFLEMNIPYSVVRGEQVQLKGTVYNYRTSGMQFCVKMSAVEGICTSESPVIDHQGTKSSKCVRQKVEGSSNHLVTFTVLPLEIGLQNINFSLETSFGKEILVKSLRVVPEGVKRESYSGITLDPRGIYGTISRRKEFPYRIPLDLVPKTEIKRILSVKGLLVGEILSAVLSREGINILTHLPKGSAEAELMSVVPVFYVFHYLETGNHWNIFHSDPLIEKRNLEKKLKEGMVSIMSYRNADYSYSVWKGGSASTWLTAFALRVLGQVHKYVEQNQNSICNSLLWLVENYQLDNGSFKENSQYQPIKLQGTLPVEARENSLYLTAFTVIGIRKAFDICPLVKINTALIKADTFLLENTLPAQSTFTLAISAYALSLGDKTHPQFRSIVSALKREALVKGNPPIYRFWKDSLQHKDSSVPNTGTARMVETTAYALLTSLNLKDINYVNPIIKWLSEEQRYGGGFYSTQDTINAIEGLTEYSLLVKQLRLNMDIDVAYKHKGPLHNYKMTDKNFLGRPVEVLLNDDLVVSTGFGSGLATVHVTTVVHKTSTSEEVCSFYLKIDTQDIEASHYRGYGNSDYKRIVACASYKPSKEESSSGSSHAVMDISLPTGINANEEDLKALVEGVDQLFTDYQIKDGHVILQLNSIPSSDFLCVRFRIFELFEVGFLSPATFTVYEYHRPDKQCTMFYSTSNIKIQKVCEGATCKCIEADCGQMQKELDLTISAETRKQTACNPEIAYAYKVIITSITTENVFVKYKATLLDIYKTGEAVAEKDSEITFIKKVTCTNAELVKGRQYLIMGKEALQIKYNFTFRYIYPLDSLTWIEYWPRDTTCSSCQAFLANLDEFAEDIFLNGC

human C5 [4] = molecular target: T1, human C5; assay: BLI; remark: listed apart in the source
human C5 R885H = human C5 R885H (human, UniProt P01031); assay: BLI
human C5 [5] = molecular target: T1, human C5; assay: BLI, bivalent
human C3 [6] = molecular target: T2, human C3; assay: ELISA
human C3 [7] = molecular target: T2, human C3; assay: BLI; remark: listed apart in the source
human C3 [8] = molecular target: T2, human C3; assay: BLI; remark: listed apart in the source
human C5 [9] = molecular target: T1, human C5; assay: BLI; remark: listed apart in the source
human C3 [10] = molecular target: T2, human C3; assay: BLI; remark: listed apart in the source
human C3 [11] = molecular target: T2, human C3; assay: BLI; remark: listed apart in the source
human C3 [12] = molecular target: T2, human C3; assay: BLI, bivalent
human C5 [13] = molecular target: T1, human C5; assay: ELISA

Kd (human C5 [1]): 13 nM
B1: C5S5 (antibody, V domains shown)
VH: QVQLQESGGGLVQAGGSLRLSCAASGTISPYEGMGWYRQAPGKERELVAAIDGGGITYYADSVKGRFTISRDNAKNTVYLQMNSLKPEDTAVYYCAAGIWTLSYYDYWGQGTQVTVSS

binding result (human C3 [2]): no binding
binding result (human C5 W917S): no binding
Kd (human C5 [3]): 12 nM
binding result (cynomolgus C5): no binding
Kd (human C5 [4]): 12 nM
binding result (human C5 R885H): no binding
B2: C5S2.2 (antibody, V domains shown)
VH: EVQLVESGGGLVQAGGSLRLSCAASGNIFHQSDMGWYRQAPGKEREFVAAIDYGTNTYYADSVKGRFTISRDNSKNTLYLQMNSLRPEDTAVYYCAARDTSYWDHVYWGQGTLVTVSS

binding result (human C3 [2]): no binding
binding result (cynomolgus C5): no binding
Kd (human C5 [1]): 1.98 nM
Kd (human C5 [4]): 6.29 nM
B3: C5S2 (antibody, V domains shown)
VH: QVQLQESGGGLVQAGGSLRLSCAASGNIFHQSDMGWYRQAPGKEREFVAAIDYGTNTYYADSVKGRFTISRDNAKNTVYLQMNSLKPEDTAVYYCAARDTSYWDHVYWGQGTQVTVSS

Kd (human C5 [5]): 0.654 nM
B4: C5S2.2-Fc (antibody, V domains shown)
VH: EVQLVESGGGLVQAGGSLRLSCAASGNIFHQSDMGWYRQAPGKEREFVAAIDYGTNTYYADSVKGRFTISRDNSKNTLYLQMNSLRPEDTAVYYCAARDTSYWDHVYWGQGTLVTVSS

binding result (human C3 [6]): no binding
B5: C3S10 (antibody, V domains shown)
VH: QVQLQESGGGLVQAGGSLRLSCAASGYISGGSIMGWYRQAPGKEREFVAGINQGSNTYYADSVKGRFTISRDNAKNTVYLQMNSLKPEDTAVYYCAVGGRSYYYHHYWGQGTQVTVSS

binding result (human C3 [7]): no binding
B6: C3S7 (antibody, V domains shown)
VH: QVQLQESGGGLVQAGGSLRLSCAASGYIFTGVDMGWYRQAPGKEREFVAAISYGASTYYADSVKGRFTISRDNAKNTVYLQMNSLKPEDTAVYYCAASLSNTYLLDLFFRYWGQGTQVTVSS

binding result (human C5 W917S): no binding
B7: eculizumab (antibody, V domains shown)
VH: QVQLVQSGAEVKKPGASVKVSCKASGYIFSNYWIQWVRQAPGQGLEWMGEILPGSGSTEYTENFKDRVTMTRDTSTSTVYMELSSLRSEDTAVYYCARYFFGSSPNWYFDVWGQGTLVTVSS
VL: DIQMTQSPSSLSASVGDRVTITCGASENIYGALNWYQQKPGKAPKLLIYGATNLADGVPSRFSGSGSGTDFTLTISSLQPEDFATYYCQNVLNTPLTFGQGTKVEIKR

Kd (human C3 [8]): 5.83 nM
binding result (human C5 [9]): no binding
Kd (human C3 [10]): 6 nM
binding result (cynomolgus C5): no binding
B8: C3S3.2 (antibody, V domains shown)
VH: EVQLVESGGGLVQAGGSLRLSCAASGTIFSRNYMGWYRQAPGKERELVAGIGYGSSTNYADSVKGRFTISRDNSKNTLYLQMNSLRPEDTAVYYCAAVPTYRPYYFYWGQGTLVTVSS

Kd (human C3 [8]): 4.97 nM
binding result (human C5 [9]): no binding
Kd (human C3 [11]): 23 nM
binding result (cynomolgus C5): no binding
B9: C3S3 (antibody, V domains shown)
VH: QVQLQESGGGLVQAGGSLRLSCAASGTIFSRNYMGWYRQAPGKERELVAGIGYGSSTNYADSVKGRFTISRDNAKNTVYLQMNSLKPEDTAVYYCAAVPTYRPYYFYWGQGTQVTVSS

Kd (human C3 [12]): 0.703 nM
B10: C3S3.2-Fc (antibody, V domains shown)
VH: EVQLVESGGGLVQAGGSLRLSCAASGTIFSRNYMGWYRQAPGKERELVAGIGYGSSTNYADSVKGRFTISRDNSKNTLYLQMNSLRPEDTAVYYCAAVPTYRPYYFYWGQGTLVTVSS

Kd (human C3 [8]): 5.32 nM
binding result (human C5 [9]): no binding
Kd (human C3 [10]): 5 nM
binding result (cynomolgus C5): no binding
B11: C3N10.3 (antibody, V domains shown)
VH: EVQLVESGGGLVQAGGSLRLACAASGLTFSPYAMGWFRQAPGKEREFVAGIRWISGNPYYADSVKGRFTISRDNSKNTLYLQMNSLRPEDTAVYSCAAAPLTRSYDYWGQGTLVTVSS

Kd (human C3 [8]): 3.64 nM
binding result (human C5 [9]): no binding
Kd (human C3 [11]): 7.6 nM
binding result (cynomolgus C5): no binding
B12: C3N10 (antibody, V domains shown)
VH: DVQLVESGGGLVQAGGSLRLACAASGLTFSPYAMGWFRQAPGKEREFVAGIRWISGNPYYADSVKGRFTISRDNAKNTVYLQMNSLKPEDTAVYSCAAAPLTRSYDYWGQGTQVTVSS

Kd (human C3 [12]): 3.25 nM
B13: C3N10.3-Fc (antibody, V domains shown)
VH: EVQLVESGGGLVQAGGSLRLACAASGLTFSPYAMGWFRQAPGKEREFVAGIRWISGNPYYADSVKGRFTISRDNSKNTLYLQMNSLRPEDTAVYSCAAAPLTRSYDYWGQGTLVTVSS

Kd (human C5 [1]): 7 nM
B14: C5S8 (antibody, V domains shown)
VH: QVQLQESGGGLVQAGGSLRLSCAASGNIFDEWDMGWYRQAPGKEREFVAAIDDGASTYYADSVKGRFTISRDNAKNTVYLQMNSLKPEDTAVYYCAARQTYAWDYRYWGQGTQVTVSS

binding result (human C3 [6]): no binding
B15: C3S5 (antibody, V domains shown)
VH: QVQLQESGGGLVQAGGSLRLSCAASGTIFDDESMGWYRQAPGKEREFVASINYGSTTYYADSVKGRFTISRDNAKNTVYLQMNSLKPEDTAVYYCAVGWSTNYDWTLSYYYWGQGTLVTVSS

binding result (human C5 [13]): no binding
B16: C5S12 (antibody, V domains shown)
VH: QVQLQESGGGLVQAGGSLRLSCAASGYIFPSDDMGWYRQAPGKEREFVAAINDGASTYYADSVKGRFTISRDNAKNTVYLQMNSLKPEDTAVYYCAVQLNYYWDYVYWGQGTQVTVSS

Kd (human C5 [1]): 9.5 nM
B17: C5S1 (antibody, V domains shown)
VH: QVQLQESGGGLVQAGGSLRLSCAASGYISYDDDMGWYRQAPGKEREFVAAIDVGGSTYYADSVKGRFTISRDNAKNTVYLQMNSLKPEDTAVYYCAVRDGYYWDHDYWGQGTQVTVSS
